The series deals with the molecule itself. As to the kind of experiment: SEC; Ni-NTA affinity purified R-est6 loaded on a Superdex 75 column calibrated with known molecular weight markers; protein in peak 1 and peak 2 confirmed as R-est6 on SDS-PAGE.

B1: R-est6, family 6 carboxylesterase from Methylococcus capsulatus (bath) (enzyme, Methylococcus capsulatus (bath strain), UniProt Q60CN0 1-336, looked up)
chain: MSTFDRGFARLLLEICRYTYAKAFALAPEEGDALQWIEQQGGKPDPASLEPIRGGDTSVACVFRYPDKNVVAYMGTKTEFDNAVNAKDSIEDWLNNFRAAPVPFKLGKEHLGLDKEVELPGRVHAGFLSELKAVQAKVIDVLSKNGGKDKPLYLTGHSQGGAEATLATVALLAGGFKVAATYTFAAPRAGDRTFADAVPAEFPFHRIEFGDDIVPHVPPTLLSRWVKTLVTVPRHLPLKRFGVPVKVNEFLELSVHDLGYVGVGRLCYGNHESGQLHVDMSVRQEASLFLGRLTRLLRHPEHWAEHHHLAGTRAEVSAGKKGNYTALVSDFPIVEG
notes: also called MCA0075
For the protein B1, the binding result is given as “binds”.
